US20250121104A1 (FUSION PHARMACEUTICALS, published 2025)

Experiments:
[1] = target: T1, Semaphorin 3a (UniProt Q14563 21-771, limits assumed); assay: ELISA, antigen coated at 1 µg/mL, antibody titrated from 10 µg/mL
T1 sequence (looked up): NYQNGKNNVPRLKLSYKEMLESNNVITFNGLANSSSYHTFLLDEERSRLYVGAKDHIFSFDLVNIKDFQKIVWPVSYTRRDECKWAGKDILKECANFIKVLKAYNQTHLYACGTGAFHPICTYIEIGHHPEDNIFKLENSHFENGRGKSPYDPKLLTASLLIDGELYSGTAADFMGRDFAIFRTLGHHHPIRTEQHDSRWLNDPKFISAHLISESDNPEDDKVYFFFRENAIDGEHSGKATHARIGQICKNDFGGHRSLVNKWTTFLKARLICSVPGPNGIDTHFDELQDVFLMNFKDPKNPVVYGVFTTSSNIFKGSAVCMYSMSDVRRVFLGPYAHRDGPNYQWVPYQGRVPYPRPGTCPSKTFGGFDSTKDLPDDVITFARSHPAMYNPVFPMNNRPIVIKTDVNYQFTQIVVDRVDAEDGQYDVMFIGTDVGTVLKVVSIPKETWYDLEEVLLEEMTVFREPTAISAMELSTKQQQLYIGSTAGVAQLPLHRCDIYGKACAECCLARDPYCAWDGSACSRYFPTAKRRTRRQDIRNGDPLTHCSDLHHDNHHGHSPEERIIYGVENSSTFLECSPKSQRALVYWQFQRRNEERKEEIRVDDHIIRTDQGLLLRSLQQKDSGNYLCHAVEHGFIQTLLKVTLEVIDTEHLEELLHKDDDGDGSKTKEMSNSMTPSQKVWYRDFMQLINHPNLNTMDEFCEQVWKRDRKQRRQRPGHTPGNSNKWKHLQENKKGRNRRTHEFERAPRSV

[2] = target: T2, Ron (CD136) (UniProt Q04912 25-957, limits assumed); assay: as above
T2 sequence (looked up): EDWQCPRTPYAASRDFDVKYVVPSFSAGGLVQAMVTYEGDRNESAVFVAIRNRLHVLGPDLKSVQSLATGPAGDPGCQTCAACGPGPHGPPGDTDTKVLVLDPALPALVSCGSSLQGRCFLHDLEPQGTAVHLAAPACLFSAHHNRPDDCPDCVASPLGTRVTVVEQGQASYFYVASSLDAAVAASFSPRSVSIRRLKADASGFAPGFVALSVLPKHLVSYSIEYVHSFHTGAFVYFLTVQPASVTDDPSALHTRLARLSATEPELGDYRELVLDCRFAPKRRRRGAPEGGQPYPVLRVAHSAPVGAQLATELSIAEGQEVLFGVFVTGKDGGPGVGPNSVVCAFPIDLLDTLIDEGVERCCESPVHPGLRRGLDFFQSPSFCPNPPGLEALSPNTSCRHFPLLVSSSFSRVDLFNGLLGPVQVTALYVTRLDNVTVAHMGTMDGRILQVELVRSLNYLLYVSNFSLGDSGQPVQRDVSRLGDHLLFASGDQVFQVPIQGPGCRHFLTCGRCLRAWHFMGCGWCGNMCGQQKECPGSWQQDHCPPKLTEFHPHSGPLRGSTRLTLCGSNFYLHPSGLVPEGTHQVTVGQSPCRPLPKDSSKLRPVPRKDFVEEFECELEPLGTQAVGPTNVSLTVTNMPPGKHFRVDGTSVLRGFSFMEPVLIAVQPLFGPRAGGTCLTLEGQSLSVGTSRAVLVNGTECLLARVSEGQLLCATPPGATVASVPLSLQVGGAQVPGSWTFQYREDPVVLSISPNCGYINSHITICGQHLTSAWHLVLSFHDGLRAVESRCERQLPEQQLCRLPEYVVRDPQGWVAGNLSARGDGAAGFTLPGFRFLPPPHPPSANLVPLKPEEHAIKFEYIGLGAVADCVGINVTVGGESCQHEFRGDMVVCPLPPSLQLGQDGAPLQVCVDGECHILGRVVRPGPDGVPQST

B1: RAA22/B09-57 DuetMab (bispecific antibody, V domains shown)
VH 1: QVQLVQSGAEVKKPGSSVKVSCKASGGTFSDNDFSWVRQAPGQGLEWMGAIVAVFRTETYAQKFQDRVKITADISTRTTYMELSSLRSEDTAVYYCARRLMSAISGPGAPLLMWGQGTLVTVSS
VL 1: QSALTQPRSVSGSPGQSVTISCTGTSSDVGGYNYVSWYQQHPGKAPKLMIYDVSKRPSGVPDRFSGSKSGNTASLTISGLQAEDEADYYCSSYTSSDTLEIFGGGTKLTVL
VH 2: QVQLVQSGAEVKKPGASVKVSCKASGYTFTDYYIHWVRQATGQGLEWMGWMNPNSGNTGYAQKFQGRVTMTRDTSISTAYMELSSLRSEDTAVYYCARGQGYTHSWGQGTMVTVSS
VL 2: DIQMTQSPSTLSASVGDRVTITCRASEGIYHWLAWYQQKPGKAPKLLIYKASSLASGVPSRFSGSGSGTEFTLTISSLQPDDFATYYCQQYSNYPPTFGGGTKLEIK
notes: RAA22 VH on Hole heavy chain (T366S, L368A, Y407V, Y349C) with lambda CL; cysteine insertion after S239; also called RAA22/B09 DuetMab; RAA22/B09 bispecific mAb
B1: no binding (tested: 10 µg/mL) [1]; no binding (tested: 10 µg/mL) [2].
